From the supplement of paper PMC10201428
± gives the standard deviation of the averaged measurements.

Columns and labels:
[1] = test system: VchCAST RNA-guided transposition machinery (E. coli BL21(DE3) host, lacZ target); assay: relative integration efficiency (T-LR orientation) vs wild-type transposon end (log2 (normalized fold change)); transposon end mutated: right end (5 bp flank + 75 bp right end); higher = more efficient transposition
Method in brief: (§1)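 A T7-driven effector plasmid encoding a CRISPR array, tniQ-cas8-cas7-cas6 and tnsA-tnsB-tnsC was co-transformed into E. coli BL21(DE3) together with a pUC57 mini-transposon donor holding barcoded pools of 1549 left-end or 1849 right-end variants. Transformants were plated with 0.1 mM IPTG at 37°C for 18 h. Illumina sequencing of PCR-amplified input plasmids and genomic integration junctions gave barcode abundances, and relative integration efficiency is their output/input fold change, normalised to reference barcodes and log-transformed.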

[2] = test system: VchCAST RNA-guided transposition machinery (E. coli BL21(DE3) host, lacZ target); assay: relative integration efficiency (T-RL orientation) vs wild-type transposon end (log2 (normalized fold change)); transposon end mutated: right end (5 bp flank + 75 bp right end); higher = more efficient transposition
Method in brief: as §1

Sequence	relative integration efficiency (log2) [1]	relative integration efficiency (log2) [2]
ACATTTGTTGATACAACCATAAAATGATAATTAATCACCCATAAATTGATAATTATCACACCCATAAATTGATATTGCCTCTGATCATAGTCAGACCAACATTGCTACGACCCGTATTCGCACCGAC	-0.602 ± 0.3	-1.92 ± 0.059
ACATTTGTTGATACAACCATATATTGATATCTCCAACCATAAAATGATAATTATCACAACCATAAAATGATAATTACTCTGATCATAGTCAGACCAACATTGCTACGACCCGTATTCGCACCGACAC	-0.314 ± 0.062	-0.172 ± 0.01
ACATTTCTCGATACAACCATAAAATGATAATTACACCCATAAATGGATAATTATCACACCCAATTTAACTATAACGCTCTGATCATAGTCAGACCAACATTGCTACGACCCGTATTCGCACCGACAC	0.276 ± 0.061	-1.99 ± 0.23
ACATTTGTTGATACAACCATAAAATGATAATTAATAATTATTTATAATCAGCAACTTAACCACACACCCATAAATTGATAATTATCAACAAACGCCCGGTCGCGGTACTCTGATCATAGTCAGACCA	0.76 ± 0.68	-2.65 ± 0.4
ACATTGGTTGATACAACCATAAAATGATAATTACACCCATAAATGGATCATTATCACACCCAATTTAACTATAACGCTCTGATCATAGTCAGACCAACATTGCTACGACCCGTATTCGCACCGACAC	-5.25 ± 0.34	-7.55 ± 0.43
ACATTTGTTGATACAACCATAAAATGAGCATTACACCCATAAATTGATAATTATCACACCCATAAATTGATATTGCCTCTGATCATAGTCAGACCAACATTGCTACGACCCGTATTCGCACCGACAC	-0.621 ± 0.017	-0.394 ± 0.049
ACATTTGTTGATACAACCATAAAGTGATATTTACAACCATAAGTTGATATTTTTCACAACCATAAAATGATAATTACTCTGATCATAGTCAGACCAACATTGCTACGACCCGTATTCGCACCGACAC	0.217 ± 0.045	-0.0427 ± 0.12
ACATTTGTGGATACAACCATAAAATGATAATTACACCCATAAATTCATAATTATCACCCCCAATTTAACTATAACGCTCTGATCATAGTCAGACCAACATTGCTACGACCCGTATTCGCACCGACAC	1.27 ± 0.13	-1.64 ± 0.37
ACATTTGTTGATACAACCATAAAATGATAATTACACCCATAAATTGATAATTATCACACCCATAAATTGATATTGCCTCTGTTGGCGCCCGGCCCTCAGGCCCTGCAGTGAGTTCCAGCACCGACAC	0.0708 ± 0.019	0.121 ± 0.15
ACATTTGTGGATCCAACCATAAAATGATAATTACACCCATAAATGGATAATTATCACACCCAATTTAACTATAACGCTCTGATCATAGTCAGACCAACATTGCTACGACCCGTATTCGCACCGACAC	1.18 ± 0.021	-1.38 ± 0.18
ACATTTGTGGATACAACCCTAAAATGATAATTACACCCATAAATTGATCATTATCACACCCAATTTAACTATAACGCTCTGATCATAGTCAGACCAACATTGCTACGACCCGTATTCGCACCGACAC	0.117 ± 0.091	-3.19 ± 0.51
ACATTTGTTGATACAACCATAAAATGATAATTACTCTGATCATAGTCAGACACCCATAAATTGATAATTATCACACCCATAAATTGATATTGCCCAACATTGCTACGACCCGTATTCGCACCGACAC	-0.838 ± 0.091	-3.73 ± 0.17
ACATTTGTTGATACTACCATTTAATGATAATAACACCCATAAAATGATAATTATCACACCCAATTTAACTATAACGCTCTGATCATAGTCAGACCAACATTGCTACGACCCGTATTCGCACCGACAC	1.8 ± 0.17	-1.01 ± 0.18
ACATTTGTTGATACACCCATAAATTGATATTGCCAACCATAAGTTGATATTTTTCACACCCATAAATTGATATTGCCTCTGATCATAGTCAGACCAACATTGCTACGACCCGTATTCGCACCGACAC	-0.37 ± 0.1	-0.773 ± 0.11
ACATTTGTTGATACAACCCGAAAATGATAATTACACCCATAAATTGATAATTATCACACCCATAAATTGATATTGCCTCTGATCATAGTCAGACCAACATTGCTACGACCCGTATTCGCACCGACAC	-3.67 ± 0.84	-3.8 ± 0.095
ACATTTGTTGATACAACCTAAAAATGATAATTACACCCATAAATTGATAATTATCACACCCATAAATTGATATTGCCTCTGATCATAGTCAGACCAACATTGCTACGACCCGTATTCGCACCGACAC	-0.819 ± 0.32	-0.616 ± 0.0067
ACATTTGTTGATACAACCATAAAATGATAATTAATAATTATTTATAATCAGCAACTTAACCACAAAACACCCATAAATTGATAATTATCAACAAACGCCCGGTCGCGGTACTCTGATCATAGTCAGA	-2.48 ± 1.9	-4.43 ± 0.39
ACATTTGTTGATACAACCATAAAATGATAATATGTCCCATAAATTGATAATTATCACACCCATAAATTGATATTGCCTCTGATCATAGTCAGACCAACATTGCTACGACCCGTATTCGCACCGACAC	-0.96 ± 0.27	-1.29 ± 0.17

Sequence	relative integration efficiency (log2) [1]	relative integration efficiency (log2) [2]
ACATTTGTGGATACAACCCTAAAATGATAATTACACCCATAAATGGATCATTATCACACCCAATTTAACTATAACGCTCTGATCATAGTCAGACCAACATTGCTACGACCCGTATTCGCACCGACAC	-1.6 ± 0.071	-3.94 ± 0.38
ACATTTGTTGATACCACCATAAAATGGTAATTCCACCCATACATTGATAATTATCACACCCAATTTAACTATAACGCTCTGATCATAGTCAGACCAACATTGCTACGACCCGTATTCGCACCGACAC	0.278 ± 0.23	-3.16 ± 0.49
ACATTTGTTGATACAACCATAAAATGATAATTACACCCATAAATTGATATCACACCCATAAATTGATATTGCCTCTGATCATAGTCAGACCAACATTGCTACGACCCGTATTCGCACCGACACTGAC	2.45 ± 0.18	-1.06 ± 0.31
ACATTTGTTGATACAACCATAAAAGGATAATTACACCCATAAATTGATAATTATCCCACCCAATTTAACTATAACGCTCTGATCATAGTCAGACCAACATTGCTACGACCCGTATTCGCACCGACAC	1.98 ± 0.22	-0.818 ± 0.21
ACATTTGTTGATACAACCATAAAATGATAATTACACCCCGAAATTGATAATTATCACACCCATAAATTGATATTGCCTCTGATCATAGTCAGACCAACATTGCTACGACCCGTATTCGCACCGACAC	-2.51 ± 0.16	-3.14 ± 0.19
ACATTTGTTGATACAACCATAAAAGGATAATTACCCCCATAAATTGATAATTATCACACCCCATTTAACTATAACGCTCTGATCATAGTCAGACCAACATTGCTACGACCCGTATTCGCACCGACAC	1.61 ± 0.2	-1.46 ± 0.44
ACATTTGTTGATACAACCATAAAATGATAATTACACCCTATTATTGATAATTATCACACCCATAAATTGATATTGCCTCTGATCATAGTCAGACCAACATTGCTACGACCCGTATTCGCACCGACAC	-0.974 ± 0.13	-0.713 ± 0.11
ACATTTGTTGATACAACCATAAAGTGATATTTACAACCATAAAGTGATATTTATCACACCCATAAATTGATATTGCCTCTGATCATAGTCAGACCAACATTGCTACGACCCGTATTCGCACCGACAC	-0.0332 ± 0.27	-0.0388 ± 0.082
ACATTTGTTCATACAACCATAAAATGATAATTACACCCATAAATTCATAATTATCACCCCCAATTTAACTATAACGCTCTGATCATAGTCAGACCAACATTGCTACGACCCGTATTCGCACCGACAC	-0.0689 ± 0.64	-1.62 ± 0.43
ACATTTGTTGATACAACCATAAAATGATAATTACACCCATAAATTGATAATGCGACACAAACGCCCGGTCGCGGTAAGAGGATCATAGTCAGACCAACATTGCTACGACCCGTATTCGCACCGACAC	2.69 ± 0.1	-0.485 ± 0.11
ACATTTGTTGATACAACCATAAAATGATAATTCACCCATAAATTGATAATTATCACACCCACATTTAACTATAACGCTCTGATCATAGTCAGACCAACATTGCTACGACCCGTATTCGCACCGACAC	1.31 ± 0.058	-2.03 ± 0.22
ACATTTGTCGATACAACCATAAAATGATAATTACCACCCATAAATTGATAATTATCACACCCATTTAACTATAACGCTCTGATCATAGTCAGACCAACATTGCTACGACCCGTATTCGCACCGACAC	1.62 ± 0.092	-1.12 ± 0.076
ACATTTGTTGATACAACCATAAAATGAATATTACACCCATAAATTGATAATTATCACACCCATAAATTGATATTGCCTCTGATCATAGTCAGACCAACATTGCTACGACCCGTATTCGCACCGACAC	-0.52 ± 0.4	-0.772 ± 0.072
ACATTTGTTGATACAACCATAAGTTGATATTTTCAACCATATATTGATATCTCTCACACCCATAAATTGATATTGCCTCTGATCATAGTCAGACCAACATTGCTACGACCCGTATTCGCACCGACAC	-0.117 ± 0.12	-0.363 ± 0.0055
ACATTTGTTGATACAACCATAAAATCATCATTACCCCCATAAATTGATAATTATCCCACCCCATTTAACTATAACGCTCTGATCATAGTCAGACCAACATTGCTACGACCCGTATTCGCACCGACAC	-0.0125 ± 0.058	-3.69 ± 0.077
ACATTTGTTGATACAACCATAAAATGATAATTACACCCATAAATTGATAATTATCACACCCATAAATTGATATTGCCTCTTCATGGTCTAAACTTCAGTAAGTTTACGACATTTTCAGCACCGACAC	1.44 ± 0.19	-0.93 ± 0.4
ACATTTGTCGATACAACCATAAAATGATAATTACACCCATAAATTCATCATTATCACCCCCAATTTAACTATAACGCTCTGATCATAGTCAGACCAACATTGCTACGACCCGTATTCGCACCGACAC	1.54 ± 0.23	-1.99 ± 0.23
